Key:
Experiment in all cases: ITC; 10 μM β3 peptide in the sample cell titrated with αIIb peptide; bicelles of 43 mM DHPC, 17 mM POPC, 25 mM NaH2PO4/Na2HPO4 pH 7.4, 28 °C; stoichiometry fixed at 1:1
[1] = molecular target: integrin β3(A711P) TM peptide (human) (UniProt P05106)
[2] = molecular target: integrin β3(W715Y) TM peptide (human) (UniProt P05106)
[3] = molecular target: integrin β3(L712A) TM peptide (human) (UniProt P05106)
[4] = molecular target: integrin β3(A711P/L712A) TM peptide (human) (UniProt P05106)
[5] = molecular target: integrin β3(A711P/W715Y) TM peptide (human) (UniProt P05106)
[6] = molecular target: integrin β3 TM peptide (human) (UniProt P05106)

integrin αIIb TM peptide (from UniProt P08514 989-1029)
KXY [1]: 12700
dH [1]: -16.9 kcal/mol
KXY [2]: 1300
dH [2]: -14.2 kcal/mol
KXY [3]: 1900
dH [3]: -12 kcal/mol
KXY [4]: 4200
dH [4]: -12.8 kcal/mol
KXY [5]: 2200
dH [5]: -14.4 kcal/mol

integrin αIIb(G972A) TM peptide (from UniProt P08514 989-1029)
KXY [1]: 5500
dH [1]: -16.2 kcal/mol
KXY [6]: 1080
dH [6]: -14.2 kcal/mol

integrin αIIb(R995A) TM peptide (from UniProt P08514 989-1029)
KXY [1]: 4000
dH [1]: -5.6 kcal/mol
